Laboratory results from the supplement of paper PMC9170038.

How the values were obtained:
Conditions in all cases: FMN input: 0 or 200 uM; Eterna round: R93 (includes R88 designs)
MS2 coat protein [1] = experiment: apparent KD of MS2 coat protein, switch ON state; designed switch direction (-1 OFF switch, 1 ON switch): 1; higher = weaker reporter binding
In short: (§1)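 The buffer was 100 mM Tris-HCl pH 7.5 with 80 mM KCl and 4 mM MgCl2, used without or with constant ligand. In it, RNA switches transcribed on-chip from Illumina sequencing clusters were titrated with SNAP-549-labelled MS2 coat protein in twofold steps from 0.7 or 1.5 nM to 3 µM. Apparent KD for each design is the median of its normalised cluster binding-curve fits.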

MS2 coat protein [2] = experiment: apparent KD of MS2 coat protein, switch OFF state (with FMN for OFF switches, without FMN for ON switches); designed switch direction (-1 OFF switch, 1 ON switch): 1; higher = weaker reporter binding
In short: as §1

MS2 coat protein [3] = experiment: apparent KD of MS2 coat protein, switch OFF state (with FMN for OFF switches, without FMN for ON switches); designed switch direction (-1 OFF switch, 1 ON switch): -1; higher = weaker reporter binding
In short: as §1

MS2 coat protein [4] = experiment: apparent KD of MS2 coat protein, switch ON state; designed switch direction (-1 OFF switch, 1 ON switch): -1; higher = weaker reporter binding
In short: as §1

Sequence	apparent KD of MS2 coat protein (MS2 coat protein [1])	apparent KD of MS2 coat protein (MS2 coat protein [2])	apparent KD of MS2 coat protein (MS2 coat protein [3])	apparent KD of MS2 coat protein (MS2 coat protein [4])
AAAAAAAAGGGUGAGGAUAUAGAAAAAAAAACAUGAGGAUCACCCAUGUGAAAAAAAAAAAAAAGCUAGAAGGCACAAAAAAAAAA [Same State 2]	0.0792 µM	0.159 µM	–	–
AAAAAACAUGAGGAUCACCCAUGUAAUACAACAUCAGGAUAUUGGCUUUACUAUGUAUUACAAGAAGGGAUGAAAA [Same State 1.3c (Same State 1 - Omei 2 )]	0.171 µM	0.0538 µM	–	–
AAAAAACAUGAGGAUCACCCAUGUAGAAACAUGGGAGGAUAUACAAAGACGAAAGUCAAAGUAGAAGGCCUAAAAG [Mat - Same State 1 - Mod - D158]	0.224 µM	0.0692 µM	–	–
AAAAAACAUGAGGAUCACCCAUGUCAAAAGACAUGAGGAUAUGUGUGGAAACCAUACUAUACAGAAGGCAUAAAAA [SS1 - 1008]	0.105 µM	0.159 µM	–	–
AAAAAACAUGAGGAUCACCCAUGUCAAAAGACGUGAGGAUAUGUACAGACUUCGGUCUGUACAGAAGGCACAAAAA [SS1 - 1031]	0.0172 µM	0.0403 µM	–	–
AAAAAACAUGAGGAUCACCCAUGUCCUCGGACGUGAGGAUAUGUACAGACUUCGGUCUGUACAGAAGGCAUGAAAA [SS1 - 1059]	0.432 µM	0.201 µM	–	–
AAAAAACAUGAGGAUCACCCAUGUGCAAAAUUCGCAGGAUAUUCCUCAAUUAAAUGAGAGGAAGAAGGGUGAAAAA [Nob's Hobby 26 - Jieux - Same State 1]	0.0213 µM	0.171 µM	–	–
AAAAAACAUGAGGAUCACCCAUGUGGGAAUAUGGAAGGAUAUACAAAGACGAAAGUCAAAGUAGAAGGUCUAAAAG [76%, Meechl 2]	0.0396 µM	0.0419 µM	–	–
AAAAAAUAAAAAAAGGAUAUAAAUGGUACAACAUGAGGAUCACCCAUGUAGUACCAAAAAAUAAAAAAGAAGGAAAAAUAAAAAA [SS2: MS2 22]	0.0208 µM	0.0237 µM	–	–
AAAAACAUGGUGUAGGAUAUAUUAAUAGUCACAUGAGGAUCACCCAUGUUCAGAUAUCUGAACGAGUAGAAGGACGAUGAAAAAA [Mat - Same state - Malcolm Mod - D109]	0.454 µM	0.349 µM	–	–
AAAACACAUGAGGAUCACCCAUGUAAAAACAAGAGAGGAUAUGCUUGGAAAACAUGCUAUGCAGAAGGCUCAAGUG [SS1 - 10]	0.0192 µM	0.0245 µM	–	–
GAAAACAUAGGAUAUACAUGAGGAUCACCCAUGUUAAAAUAAAGAAAGGGAGAAAUAAGUAGAAGGAUGAAAAA [Mat - Mod of Meechl]	–	–	0.0298 µM	0.0256 µM
GAAAAGUCAGGAUAUAUAGGAAAAAUAAAAAAAAUAAAACUAUAGAAGGGACAUGAGGAUCACCCAUGUUAAAG [Mat - Exclusion 4 - Mayanna - D132]	–	–	0.0255 µM	0.0445 µM
GAAAAGUCAGGAUAUGUGGAAAAAAUAAAAAAAAUAAAAACACAGAAGGGACAUGAGGAUCACCCAUGUAAAAA [Mat - Exclusion 4 - Mayanna - D140]	–	–	0.039 µM	0.0683 µM
GAAAAGUGAGGAUAUGUCAAAAGUCACAAAAGUGACAAAAGACAGAAGGCACAUGAGGAUCACCCAUGUGAAAA [Mat - Exaclusion 4 - Eli mod - D55]	–	–	0.0438 µM	0.0242 µM
GAAAAGUGAGGAUAUGUCAAAAGUCACAAAAGUGACAAAAGACAGAAGGCACAUGAGGAUCACCCAUGUGAAAG [Mat - Exaclusion 4 - Eli mod - D54]	–	–	0.0284 µM	0.0247 µM
GAAAAUUGAGGAUAUACGAACAUGUCAAAAGACGUGAAGGGACAUGAGGAUCACCCAUGUAGAAGGCGAAAAAG [Mat - Exclusion 2 - JL mod - D93]	–	–	0.0123 µM	0.032 µM
GAAACACAUGAGGAUCACCCAUGUCAGGAUAUGUAGAUAAAAAGAAAAUAAAAUAAAAGCAGAAGGGACAAAAG [Mat - Same state - Mayanna Mod - D104]	–	–	0.0294 µM	0.0302 µM
GAAAGGGCAGGAUAUGCAGAGAGAGAGAGAGAAAAAAAAAAACAUGAGGAUCACCCAUGUAGAAGGGCCGAAAG [salish99-ex2-05]	–	–	0.0322 µM	0.0424 µM
GAUAGUGAAGGAUAUACUGGAGGAGUGCGAUAGAAGCAAGAACAUGAGGAUCACCCAUGUAGAAGGUCAGAAGU [JR_Exc002_Sub1224]	–	–	0.0232 µM	0.0255 µM
GAUCCACAUGAGGAUCACCCAUGUGAGGAUAUCGUGCAGAAAAAAAAAAAAAACUGCACGAGAAGGCACAUGGG	–	–	0.013 µM	0.0194 µM

Sequence	apparent KD of MS2 coat protein (MS2 coat protein [1])	apparent KD of MS2 coat protein (MS2 coat protein [2])	apparent KD of MS2 coat protein (MS2 coat protein [3])	apparent KD of MS2 coat protein (MS2 coat protein [4])
GCUCAGUAAGGAUAUUAAUGGCGCUGUUAUUCAGCACCAGCUGAGAAGGUACAUGAGGAUCACCCAUGUGGUGA [Berion]	–	–	0.216 µM	0.24 µM
GCUUGCGAAGGAUAUACAUGAGGAUCACCCAUGUGAGAGAAAAAAGUGAGAAAGAAAAGUAGAAGGUCGUGAGG [salish99-ex3-95]	–	–	0.0728 µM	0.0283 µM
GCUUGGCUAGGAUAUACAUGAGGAUCACCCAUGUGAGAGAAAAAAGUGAGAAAGAAAAGUAGAAGGAGUUGAGG [salish99-ex3-82]	–	–	0.0397 µM	0.0462 µM
GGAAAACAUGAGGAUCACCCAUGUAAGGAUAUGCUAAGGAAGGAAAAAAACCCACCAGGCAGAAGGUACUAAAG [Janelle Amethyst 18 Mod 4 - Jieux - Exclusion 1]	–	–	0.0472 µM	0.0231 µM
GGAAAACAUGAGGAUCACCCAUGUGAGGAUAUGCAGGAUAUAGAAGGAAAAAAAAAAAGCAGAAGGUACGAAGG [salish99-ex1-17]	–	–	0.0363 µM	0.0223 µM
GGAGGCCAAGGAUAUACAUGAGGAUCACCCAUGUGAGAGAAAAAAGUGAGAAAGAAAAGUAGAAGGUGGUUUCG [salish99-ex3-129]	–	–	0.131 µM	0.0654 µM
GGCUGGCGAGGAUAUACAUGAGGAUCACCCAUGUGAGAGAAAAAAGUGAGAAAGAAAAGUAGAAGGCGCUGGCG [salish99-ex3-55]	–	–	0.0814 µM	0.0341 µM
GGGUAACAUGAGGAUCACCCAUGUGAGGAUAUCCUAGGGAUGGAAGCCAGGCCAAAAAGGAGAAGGUACUAAAG [Janelle Amethyst 18 Mod 17 - Jieux - Exclusion 1]	–	–	0.0724 µM	0.0542 µM
GGGUAACAUGAGGAUCACCCAUGUGAGGAUAUGCUAGGGAUGGAAGCCAGGCCAAAAAGCAGAAGGUACUAAAG [Janelle Amethyst 18 Mod 16 - Jieux - Exclusion 1]	–	–	0.0343 µM	0.0236 µM
GGUUGAGAAGGAUAUACAUGAGGAUCACCCAUGUGAGAGAAAAAAGUGAGAAAGAAAAGUAGAAGGUCUUGACG [salish99-ex3-63]	–	–	0.0959 µM	0.029 µM
GGUUGAUGAGGAUAUACAUGAGGAUCACCCAUGUGAGAGAAAAAAGUGAGAAAGAAAAGUAGAAGGCAUUGACG [salish99-ex3-60]	–	–	0.0694 µM	0.0377 µM
GGUUGGCAAGGAUAUACAUGAGGAUCACCCAUGUGAGAGAAAAAAGUGAGAAAGAAAAGUAGAAGGUGUUGACG [salish99-ex3-75]	–	–	0.053 µM	0.0268 µM
GGUUGGCGAGGAUAUACAUGAGGAUCACCCAUGUGAGAGAAAAAAGUGAGGAGGAGAAGUAGAAGGCGCUGACG [salish99-ex3-17]	–	–	0.0037 µM	0.0189 µM
GGUUGGCGAGGAUAUACAUGAGGAUCACCCAUGUGAGAGAAAAAAGUGUGAAAGAAAAGUAGAAGGCGCUGACG [salish99-ex3-54]	–	–	0.013 µM	0.031 µM
GGUUUGCAAGGAUAUACAUGAGGAUCACCCAUGUGAGAGAAAAAAGUGAGAAAGAAAAGUAGAAGGUGCGGACG [salish99-ex3-121]	–	–	0.0627 µM	0.0223 µM
GGUUUGCUAGGAUAUACAUGAGGAUCACCCAUGUGAGAGAAAAAAGUGAGAAAGAAAAGUAGAAGGAGCGGACG [salish99-ex3-122]	–	–	0.0664 µM	0.0682 µM
GUGUACAGAGGAUAUACAUGAGCAUGGAAACAUGCAAGAUCACAUGAGGAUCACCCAUGUAGAAGGCUGUACAC [Ex2: 733]	–	–	0.0308 µM	0.0503 µM
GUUAUGUGAGGAUAUAUGUAGGAAACUACAUUAAGGGUAUCACAUGAGGAUCACCCAUGUAGAAGGCGCGUAGC [Ex2Try2_Neo]	–	–	0.256 µM	0.283 µM
UAAAAGUGAGGAUAUGUCAAAAGUCACAAAAGUGACAAAAGACAGAAGGCACAUGAGGAUCACCCAUGUGAAAU [Mat - Exaclusion 4 - Eli mod - D56]	–	–	0.0322 µM	0.0233 µM
UCCGCACAUGAGGAUCACCCAUGUCAGGAUAUACAAGAAAAUCAGGCUAAUGCCUGAAGUAGAAGGGACGAGGA [Armaingean]	–	–	0.016 µM	0.0277 µM
UCCUGACAUGAGGAUCACCCAUGUCAGGAUAUAGUAUGAAAAAAAAAAAAAAAAAAUACUAGAAGGGACAUGGG [Design 12: Super Stable Short Helix 3]	–	–	0.0216 µM	0.0292 µM
